Data published in the DeepSol protein solubility set.

test: soluble on expression in E. coli; label from the status in PepcDB or PDB records

| Sequence | soluble on expression in E. coli |
| --- | --- |
| MFPRALAIGTPAQHKATEAPVTSTSASGLARFNTLEETAALAELHEACAATAWARHLLAARPFATAEDLYAASDAAMAELSAEDLAEAMAGHPPIGRPKPGDATSSREQAGMAGAAEELKAEMLELNLAYQDKFGHVFLICATGRTGEQMRDAALERIGNSPEQEREIVRTELGKINRIRLTRLVEQDARPAAALEHHHHHH | soluble |
| MPELPEVETSRRGIEPHLVGATILHAVVRNGRLRWPVSEEIYRLSDQPVLSVQRRAKYLLLELPEGWIIIHLGMSGSLRILPEELPPEKHDHVDLVMSNGKVLRYTDPRRFGAWLWTKELEGHNVLTHLGPEPLSDDFNGEYLHQKCAKKKTAIKPWLMDNKLVVGVGNIYASESLFAAGIHPDRLASSLSLAECELLARVIKAVLLRSIEQGGTTLKDFLQSDGKPGYFAQELQVYGRKGEPCRVCGTPIVATKHAQRATFYCRQCQK | not soluble |
| MSLNSAMDKILVVNEGGELLRFKAMQQDLLYESLLKNHCYHTAYYLNSFDRLSLQENRARALFLVNKPDANTIFAKYQADRGYGDALELGVVYRTEFEKMLSVSVSGEEYHVTFSSVLSIINGNDVRKIRILSEGTVIRTTPRFPENTSGFFFRTYNQQYEMEGHHHHHH | soluble |
| MFEFKHIKAFDRAFADNPGPMVVFATPGMLHAGQSLQIFRKWAGNEKNMVIMPGYCVQGTVGHKILSGQRKLEMEGRQVLEVKMQVEYMSFSAHADAKGIMQLVGQAEPESVLLVHGEAKKMEFLKQKIEQELRVNCYMPANGETVTLPTSPSIPVGISLGLLKREMAQGLLPEAKKPRLLHGTLIMKDSNFRLVSSEQALKELGLAEHQLRFTCRVHLHDTRKEQETALRVYSHLKSVLKDHCVQHLPDGSVTVESVLLQAAAPSEDPGTKVLLVSWTYQDEELGSFLTSLLKKGLPQAPS | soluble |
| MGSDKIHHHHHHMIRGEMTMPSLTFQEIDNHLMNDNKPSNFIIELNKAGIIETEYPFTLLGALKDTPQSPKHHPEGSVWNHTLMVLDNAAERKHLSQNPQVLMWAALLHDLGKAPTTRVRKGRITSYDHDAVGEKLAGQFLRELTRDERFIHQVAKMVRWHMQILFVVKGLPFANVKKMAAEVSIEEIALLGFCDRLGRGEMTPQKKQEEEQTIEKFLVRCMEILQG | not soluble |
| MAVSDNTFSMSTMFNALPNPTETSGYIPPSGFAPRASATPLHAALFNLMTDGDGVSYFKEMISKSDKTELQRMASLLTSDSDYFMSIVTTKFGSRRVQKLLGKSDDVDAFFCAAILRRFLHITTDKYASYVTIRAMVVFDKVMKKALYERILYHALDLACDQHGCIALNDIITDADDPYYRDQLLELVVSNALRLSNDASGNFVVQHVLTLYDSRCIHNIAVNLYGQCIELSFKKYGSYIVEKLLEVEESMVVVVVELLGCDGDRLMRLARNEFGNFVVVKALRFTKEMRMDLFWGLVQKLMPFIHLLRRSHGNNIANILDTFRLRC | soluble |
| DGYIGVMIDDLVTKGTIEPYRLLTSRAEYRLILRHDNADMRLTEMGREIGLVDDERWARFEIKKNQFDNEMKRLDSIKLKPVKETNAKVEEMGFKPLTDAVTAKEFLRRPEVSYQDVVAFIGPAAEDLDDKIIELIETEIKYEGYISKAMDQVAKMKRMEEKRIPANIDWDDIDSIATEARQKFKLINPETIGQASRISGVNPADISILMVYLEG | not soluble |
| MTHALLIGNPNCGKTTLFNALTNANQRVGNWPGVTVEKKTGEFLLGEHLIEITDLPGVYSLVANAEGISQDEQIAAQSVIDLEYDCIINVIDACHLERHLYLTSQLFELGKPVVVALNMMDIAEHRGISIDTEKLESLLGCSVIPIQAHKNIGIPALQQSLLHCSQKIKPLKLSLSVAAQQILNDLENQLISKGYKNSFAYYFSRRLAEGDTLIGEKAFTESLLIKLQETEQNLDVLLADARYQKIHEIVTLVQKK | soluble |
| MTPYNEREVLKLLQEESTQRKGFELIVAQYSEQLYWQIRRMVLSHEDANDLLQNTFIKAWTNIDYFRAEAKLSTWLYRIALNECLTFLNRQRATTTVAIDDPEAAIVQKLESDPYYSGDQVQMLLQKALLTLPEKQRMVFNLKYYQEMKYEEMSEIFGTSVGALKASYHHAVKKIEKFLEEVD | not soluble |
| MGSDKIHHHHHHMPQRLYTYPPLLRGRLLQRYKRFFADIELDSGETITAHCPNTGPMTGVCQMGNLVYVSKSDNPKRKLAYTWELIEVTDNEPTWVGVNTGLPNRVVQALLEQRCLPVLGDYGEVQREVPYGENSRIDFRLTGDRPIYVEVKNTTWTAGRLALFPDTVTTRGQKHLRELTAILLEARAVMLYFINRGDCTAFAPGDSADPTYGQLLRTGIAAGLEVYPCQFQISPEGIDFLGVAPLQL | not soluble |
| MSASSERELYEAWVELLSWMREYAQAKGVRFEKEADFPDFIYRMERPYDLPTTIMTASLSDGLGEPFLLADVSPRHAKLKRIGLRLPRAHIHLHAHYEPGKGLVTGKIPLTKERFFALADRAREALAFA | soluble |
| MEESDVLISLIEILKIHQKVIDYDKFKDPEDYTPAIRSLATLELMFEYLIKESNTIFENAAVIVYTIVAKHPFFNGNKRTGYEAMNFIIEDGGYGFTSTDEEMIEFIIRVATTENEMSIEEIKEWIIRHTEKILLEHHHHHH | soluble |
| VGTIDQLVKRVIEGSLSPKERTLLKEDPAYWFLSDENSLEYKYYKLKLAEMQR | soluble |
| MKEYLKEKAHQLPLTPGVYLMKDATDTIIYVGKAKKLKNRVSSYFINSNQHSRKTMRLVKQIIDFDVLHTDTELDALLLECQLIQQYRPRYNRQMNAYEQYSYVSVAVNERQLEIKLLNIPTKENCFGPYSIRRKLNRLKIILDSIYDLVPTNYWHQTFQKESAIPTELFQQELFDFFHNQGREPIKRIAQQMQEAAEKQAFEKAAKLKEDWLFLTRFANQNQRISQANQRDWQLMWLPCQKKIKYYLIYQGLVVATRVVTKQTFQKYSPLELAKKIMPKKPPKTIEHYSKQQVDFLNILYGYISRHPECHLENLTIEKA | not soluble |
| SLVASGYPLSQTFGHGDIHFLPPELADARTSKIKVPFQSLLCDGEDEFRKGARYVLREGVDFIKIFVTGGVASQKDKPEFPQMTRGEIAAVVEEARRAGRLVHAHAESSEGYINAVEEGVKTLAHGMDLNQDAINLSVEKDVTLIPTLSIVDVALKFGPSNNLPEWMLEKLKEVHEIHAESIKRAYRERVRLATGTDFFIGAKEVQLYGLNSLEIKLLVGLGVKPMDALKAVIKEGEIVKQS | not soluble |
| MLELLYTALLYLIQPLIWIRLWVRGRKAPAYRKRWGERYGFYRHPLKPGGIMLHSVSVGETLAAIPLVRALRHRYPDLPITVTTMTPTGSERVQSAFGKDVQHVYLPYDLPDALNRFLNKVDPKLVLIMETELWPNLIAALHKRKIPLVIANARLSARSAAGYAKLGKFVRRLLRRITLIAAQNEEDGARFVALGAKNNQVTVTGSLKFDISVTPQLAAKAVTLRRQWAPHRPVWIATSTHEGEESVVIAAHQALLQQFPNLLLILVPRHPERFPDAINLVRQAGLSYITRSSGEVPSTSTQVVVGDTMGELMLLYGIADLAFVGGSLVERGGHNPLEAAAHAIPVLMGPHTFNFKDICARLEQASGLITVTDATTLAKEVSSLLTDADYRSFYGRHAVEVLYQNQGALQRLLQLLEPYLPPKTHLEHHHHHH | soluble |
